Key:
E. coli LS = E. coli LS (Escherichia coli, UniProt P61714); settings: 37° C.; cited from earlier work
B. subtilis LS = target: T1, B. subtilis LS (Bacillus subtilis, UniProt P11998); settings: 37° C.; cited from earlier work
T1 sequence (P11998 whole entry, looked up): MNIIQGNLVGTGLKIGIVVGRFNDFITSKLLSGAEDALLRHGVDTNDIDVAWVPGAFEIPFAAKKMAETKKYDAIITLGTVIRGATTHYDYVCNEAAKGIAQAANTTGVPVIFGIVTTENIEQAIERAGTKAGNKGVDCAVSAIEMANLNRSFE

S. cerevisiae RS = target: T2, S. cerevisiae RS (Saccharomyces cerevisiae, UniProt P38145); settings: 37° C.; cited from earlier work
T2 sequence (P38145 1-238): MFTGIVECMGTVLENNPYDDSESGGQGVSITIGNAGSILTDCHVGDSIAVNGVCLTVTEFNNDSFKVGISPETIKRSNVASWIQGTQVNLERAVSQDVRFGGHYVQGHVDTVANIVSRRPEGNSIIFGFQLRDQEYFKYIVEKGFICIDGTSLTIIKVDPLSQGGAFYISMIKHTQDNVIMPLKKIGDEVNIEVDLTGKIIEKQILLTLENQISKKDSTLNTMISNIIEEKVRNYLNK

yeast LS = yeast LS (Saccharomyces cerevisiae, UniProt P50861); settings: 37° C.; cited from earlier work
[1] = tested on: purified recombinant spinach RS; assay: Riboflavin synthase assay (riboflavin formation from DMRL, 470 nm); type: biochemical, spinach (Spinacea oleracea); settings: 25° C., based on protomer
Experimental: Riboflavin synthase assays were run using 1-mL reaction mixtures containing 0.1 mM DMRL in 50 mM Tris-Cl (pH 7.5) at 25° C. Reactions were initiated by the addition of purified recombinant spinach RS and initial rates of the reactions were measured continuously at 470 nm. A molar extinction coefficient (ε) of 9500 at 470 nm was used to calculate the formation of riboflavin (Plaut, G. W. E. and Harvey, R. A., Methods in Enzymology (McCormick, D. B. and Wright L. D., eds.) vol. 18, part B, pp. 515-538, Academic Press, N.Y. (1971)).

B. subtilis RS = target: T3, B. subtilis RS (Bacillus subtilis, UniProt P16440); settings: 37° C.; cited from earlier work
T3 sequence (P16440 whole entry, looked up): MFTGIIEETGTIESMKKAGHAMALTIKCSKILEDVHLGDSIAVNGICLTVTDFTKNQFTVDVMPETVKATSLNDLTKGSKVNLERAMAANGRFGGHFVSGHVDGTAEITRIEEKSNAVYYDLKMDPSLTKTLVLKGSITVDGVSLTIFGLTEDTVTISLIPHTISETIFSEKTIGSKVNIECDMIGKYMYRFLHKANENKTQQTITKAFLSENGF

B1: E. coli LS: purified E. coli lumazine synthase, literature comparison (protein, UniProt P61714 1-156, looked up)
6,7-dimethyl-8-ribityllumazine …: MNIIEANVATPDARVAITIARFNNFINDSLLEGAIDALKRIGQVKDENITVVWVPGAYELPLAAGALAKTGKYDAVIALGTVIRGGTAHFEYVAGGASNGLAHVAQDSEIPVAFGVLTTESIEQAIERAGTKAGNKGAEAALTALEMINVLKAIKA
In the case of B1, the reported turnover number (E. coli LS) is listed as 0.06 s⁻¹.

B2: B. subtilis LS: purified B. subtilis lumazine synthase, literature comparison (protein, UniProt P11998 1-154, looked up)
6,7-dimethyl-8-ribityllumazine …: MNIIQGNLVGTGLKIGIVVGRFNDFITSKLLSGAEDALLRHGVDTNDIDVAWVPGAFEIPFAAKKMAETKKYDAIITLGTVIRGATTHYDYVCNEAAKGIAQAANTTGVPVIFGIVTTENIEQAIERAGTKAGNKGVDCAVSAIEMANLNRSFE
For B2, the reported turnover number (B. subtilis LS) is given as 0.06 s⁻¹.

B3: S. cerevisiae RS: yeast riboflavin synthase, literature comparison (Santos et al.) (protein, UniProt P38145 1-238, looked up)
Riboflavin synthase: MFTGIVECMGTVLENNPYDDSESGGQGVSITIGNAGSILTDCHVGDSIAVNGVCLTVTEFNNDSFKVGISPETIKRSNVASWIQGTQVNLERAVSQDVRFGGHYVQGHVDTVANIVSRRPEGNSIIFGFQLRDQEYFKYIVEKGFICIDGTSLTIIKVDPLSQGGAFYISMIKHTQDNVIMPLKKIGDEVNIEVDLTGKIIEKQILLTLENQISKKDSTLNTMISNIIEEKVRNYLNK
In the case of B3, the reported turnover number (S. cerevisiae RS) is given as 0.13 s⁻¹.

B4: yeast LS: purified yeast lumazine synthase, literature comparison (protein, UniProt P50861 1-169, looked up)
6,7-dimethyl-8-ribityllumazine …: MAVKGLGKPDQVYDGSKIRVGIIHARWNRVIIDALVKGAIERMASLGVEENNIIIETVPGSYELPWGTKRFVDRQAKLGKPLDVVIPIGVLIKGSTMHFEYISDSTTHALMNLQEKVDMPVIFGLLTCMTEEQALARAGIDEAHSMHNHGEDWGAAAVEMAVKFGKNAF
In the case of B4, the reported turnover number (yeast LS) is given as 0.06 s⁻¹.

B5: recombinant spinach RS: purified recombinant mature spinach riboflavin synthase expressed in E. coli, without transit peptide (SEQ ID NO:8) (protein)
chain: MFTGIVEEIGRVKQMGYGEDGGFQLKVVGDIVLKDVNLGDSIAVNGTCLTVTEFDTKASEFTLGIAPETLRKTALMDLEPGSVVNLERALLPSTRMGGHFVQGHVDGTGEIVSLVEEGDSLWVKIKTSPEILRYIVPKGFIAIDGTSLTVVDVFDQELCFNIMLVAYTQQNVVIPLKKVGQKVNLEVDILGKYVERLLSSSGVLDPTKFT
In the case of B5, the turnover number [1] is reported as “approximately 0.08 /sec”.

B6: B. subtilis RS: B. subtilis riboflavin synthase, literature comparison (Bacher et al.) (protein, UniProt P16440 1-215, looked up)
Riboflavin synthase: MFTGIIEETGTIESMKKAGHAMALTIKCSKILEDVHLGDSIAVNGICLTVTDFTKNQFTVDVMPETVKATSLNDLTKGSKVNLERAMAANGRFGGHFVSGHVDGTAEITRIEEKSNAVYYDLKMDPSLTKTLVLKGSITVDGVSLTIFGLTEDTVTISLIPHTISETIFSEKTIGSKVNIECDMIGKYMYRFLHKANENKTQQTITKAFLSENGF
For B6, the reported turnover number (B. subtilis RS) is listed as 0.33 s⁻¹.
